Data as given in patent publication US9580464B2, “Anti-inflammatory proteins and peptides and methods of preparation and use thereof” (ManukaMed Limited, priority 2012, dated 2017).

B1: MGO-modified MRJP3: major royal jelly protein 3 chemically modified by methylglyoxal (protein, UniProt Q17060 21-544, looked up)
Major royal jelly protein 3: AAVNHQRKSANNLAHSMKVIYEWKHIDFDFGSDERRDAAIKSGEFDHTKNYPFDVDRWRDKTFVTIERNNGVPSSLNVVTNKKGKGGPLLRPYPDWSFAKYEDCSGIVSAFKIAVDKFDRLWVLDSGLVNNNQPMCSPKLLTFDLKTSKLVKQVEIPHNIAVNATTGMGELVSLAVQAIDRTNTMVYIADEKGEGLIMYQNSDDSFHRLTSNTFDYDPRYTKLTVAGESFTVKNGIYGIALSPVTNNLYYSPLLSHGLYYVDTEQFSNPQYEENNVQYEGSQDILNTQSFGKVVSKNGVLFLGLVGNSGIACVNEHQVLQRESFDVVAQNEETLQMIVSMKIMENLPQSGRINDPEGNEYMLALSNRMQKIINNDFNFNDVNFRILGANVDDLMRNTRCGRYHNQNAGNQNADNQNADNQNANNQNADNQNANKQNGNRQNDNRQNDNKQNGNRQNDNKQNGNRQNDNKQNGNRQNGNKQNDNKQNGNRQNDNKRNGNRQNDNQNNQNDNNRNDNQVHHSSKLH
modifications: methylglyoxal-modified
notes: major royal jelly protein 3 chemically modified by methylglyoxal
B2: native hexamer form of MRJP1: unmodified major royal jelly protein 1 (SEQ ID NO: 1), about 300 kDa hexamer (protein, listed as Apis mellifera)
chain: MTRLFMLVCLGIVCQGTTGNILRGESLNKSLPILHEWKFFDYDFGSDERRQDAILSGEYDYKNNYPSDIDQWHDKIFVTMLRYNGVPSSLNVISKKVGDGGPLLQPYPDWSFAKYDDCSGIVSASKLAIDKCDRLWVLDSGLVNNTQPMCSPKLLTFDLTTSQLLKQVEIPHDVAVNATTGKGRLSSLAVQSLDCNTNSDTMVYIADEKGEGLIVYHNSDDSFHRLTSNTFDYDPKFTKMTIDGESYTAQDGISGMALSPMTNNLYYSPVASTSLYYVNTEQFRTSDYQQNDIHYEGVQNILDTQSSAKVVSKSGVLFFGLVGDSALGCWNEHRTLERHNIRTVAQSDETLQMIASMKIKEALPHVPIFDRYINREYILVLSNKMQKMVNNDFNFDDVNFRIMNANVNELILNTRCENPDNDRTPFKISIHL
modifications: native hexamer
B3: monomeric form of royalactin: unmodified monomeric MRJP1 (royalactin) (protein)
chain: NILRGESLNKSLPILHEWKFFDYDFGSDERRQDAILSGEYDYKNNYPSDIDQWHDKIFVTMLRYNGVPSSLNVISKKVGDGGPLLQPYPDWSFAKYDDCSGIVSASKLAIDKCDRLWVLDSGLVNNTQPMCSPKLLTFDLTTSQLLKQVEIPHDVAVNATTGKGRLSSLAVQSLDCNTNSDTMVYIADEKGEGLIVYHNSDDSFHRLTSNTFDYDPKFTKMTIDGESYTAQDGISGMALSPMTNNLYYSPVASTSLYYVNTEQFRTSDYQQNDIHYEGVQNILDTQSSAKVVSKSGVLFFGLVGDSALGCWNEHRTLERHNIRTVAQSDETLQMIASMKIKEALPHVPIFDRYINREYILVLSNKMQKMVNNDFNFDDVNFRIMNANVNELILNTRCENPDNDRTPFKISIHL

Experiments:
[1] = Anti-inflammatory activity of MGO-modified proteins (results not shown)
From the text: As used herein, “anti-inflammatory capacity” is defined as the capacity to clinically reduce inflammation or the symptoms of inflammation in cellular tissue. Anti-inflammatory capacity may be determined using the phagocytosis inhibition assay (PIA) described in PCT/NZ PCT/NZ/2011/000271 or the DCFDA assay also described in PCT/NZ/2011/000271 or the anti-inflammatory capacity may also be determined by the inhibition of Cathepsin B as described in detail below.

[2] = biological target: Cathepsin B (Bos taurus, UniProt P07688); assay: Cathepsin B digestion of MGO-modified MRJP, native PAGE; assay type: biochemical; conditions: 37° C.
Description: Cathepsin B working reagent solution was prepared (1:50) from Cathepsin B stock solution in the buffer system containing 100 mM sodium acetate, 2 mM EDTA and 2.5 mM 2-mercaptoethanol, pH 5.0.
Cathepsin digestion was performed on selected samples of SEC fractions. Typically, 10 μl of Cathepsin B working solution was mixed with 20 μl of protein sample and digested at 37° C. for overnight. After hydrolysis, the digests were prepared for native PAGE analysis.
Samples used in the Cathepsin B digestion were: 1) Crude MRJP protein; 2) Desalted fraction (first big peak) of MGO-modified MRJP at pH 4.0 for 9 days sample; 3) Desalted fraction (first big peak) of MGO-modified MRJP in PBS (pH 7.5) for 9 days sample; 4) SEC fractions of pH 5.0 fractions; 5) SEC fractions of reaction 221.
For hydrolysis, 10 μL of a 1 mg/mL solution (10 μg) of Cathepsin B was used. Thus, a very high level of enzyme activity was employed for these experiments. Moreover, the reaction was performed over two days at 37° C. Under these conditions, we expected to see complete or near complete hydrolysis of the MRJP proteins.

Row | Molecule | Anti-inflammatory activity [1] | Hydrolysis by Cathepsin B [2]
1 | B1 | enhanced anti-inflammatory properties | 
2 | B2 |  | readily degraded
3 | B3 |  | readily degraded
